From patent US5831007
“And” between values parts separate entries of the source, which are not always exact repeats. Identical values can stand only once.

How the values were obtained:
[1] = target: Soluble complex of 125I-IL-12 crosslinked to human IL-12R (human) (UniProt P29460); experiment: immunoprecipitation of the solubilized 125I-IL-12/IL-12R complex by the immobilized antibody; control
[2] = target: Natural human IL-12 receptor on IL-12R positive human cells (PHA-activated PBMC, K6, Kit-225, YT cells) (human); experiment: steady state 125I-IL-12 binding to PHA-PBMC (5-7 days), Scatchard, third of 3 sites
[3] = target: Natural human IL-12 receptor on IL-12R positive human cells (PHA-activated PBMC, K6, Kit-225, YT cells) (human); experiment: steady state 125I-IL-12 binding to Kit-225 cells, Scatchard, second of 3 sites
[4] = target: Detergent solubilized IL-12R from extracts of PHA-activated PBMC, Kit-225 or K6 cells (human); experiment: steady state binding of 125I-IL-12 to proteins immunoprecipitated by immobilized 2-4E6 from solubilized cell extracts, Scatchard (FIG. 14, K6 cells)
[5] = target: Natural human IL-12 receptor on IL-12R positive human cells (PHA-activated PBMC, K6, Kit-225, YT cells) (human); experiment: steady state 125I-IL-12 binding to K6 cells, Scatchard, second of 3 sites
[6] = target: Natural human IL-12 receptor on IL-12R positive human cells (PHA-activated PBMC, K6, Kit-225, YT cells) (human); experiment: steady state 125I-IL-12 binding to Kit-225 cells, Scatchard, first of 3 sites
[7] = target: Natural human IL-12 receptor on IL-12R positive human cells (PHA-activated PBMC, K6, Kit-225, YT cells) (human); experiment: steady state 125I-IL-12 binding to K6 cells, Scatchard, third of 3 sites
[8] = target: Natural human IL-12 receptor on IL-12R positive human cells (PHA-activated PBMC, K6, Kit-225, YT cells) (human)
[9] = target: Natural human IL-12 receptor on IL-12R positive human cells (PHA-activated PBMC, K6, Kit-225, YT cells) (human); experiment: steady state 125I-IL-12 binding to PHA-PBMC (5-7 days), Scatchard, first of 3 sites
[10] = target: Natural human IL-12 receptor on IL-12R positive human cells (PHA-activated PBMC, K6, Kit-225, YT cells) (human); experiment: equilibrium binding of 125I-IL-12 to PHA-activated PBMCs, Kit-225 and K6 cells, Scatchard, second of 3 sites
[11] = target: Natural human IL-12 receptor on IL-12R positive human cells (PHA-activated PBMC, K6, Kit-225, YT cells) (human); experiment: steady state 125I-IL-12 binding to Kit-225 cells, Scatchard, third of 3 sites
[12] = target: Natural human IL-12 receptor on IL-12R positive human cells (PHA-activated PBMC, K6, Kit-225, YT cells) (human); experiment: equilibrium binding of 125I-IL-12 to PHA-activated PBMCs, Kit-225 and K6 cells, Scatchard, first of 3 sites
[13] = target: Natural human IL-12 receptor on IL-12R positive human cells (PHA-activated PBMC, K6, Kit-225, YT cells) (human); experiment: equilibrium binding of 125I-IL-12 to PHA-activated PBMCs, Kit-225 and K6 cells, Scatchard, third of 3 sites
[14] = target: Natural human IL-12 receptor on IL-12R positive human cells (PHA-activated PBMC, K6, Kit-225, YT cells) (human); experiment: steady state 125I-IL-12 binding to YT cells, Scatchard, first of 2 sites
[15] = target: Natural human IL-12 receptor on IL-12R positive human cells (PHA-activated PBMC, K6, Kit-225, YT cells) (human); experiment: steady state 125I-IL-12 binding to PHA-PBMC (5-7 days), Scatchard, second of 3 sites
[16] = target: Natural human IL-12 receptor on IL-12R positive human cells (PHA-activated PBMC, K6, Kit-225, YT cells) (human); experiment: steady state 125I-IL-12 binding to K6 cells, Scatchard, first of 3 sites
[17] = target: Natural human IL-12 receptor on IL-12R positive human cells (PHA-activated PBMC, K6, Kit-225, YT cells) (human); experiment: steady state 125I-IL-12 binding to YT cells, Scatchard, second of 2 sites

Chain of Recombinant human IL-12 (Interleukin-12) (P29460 23-328): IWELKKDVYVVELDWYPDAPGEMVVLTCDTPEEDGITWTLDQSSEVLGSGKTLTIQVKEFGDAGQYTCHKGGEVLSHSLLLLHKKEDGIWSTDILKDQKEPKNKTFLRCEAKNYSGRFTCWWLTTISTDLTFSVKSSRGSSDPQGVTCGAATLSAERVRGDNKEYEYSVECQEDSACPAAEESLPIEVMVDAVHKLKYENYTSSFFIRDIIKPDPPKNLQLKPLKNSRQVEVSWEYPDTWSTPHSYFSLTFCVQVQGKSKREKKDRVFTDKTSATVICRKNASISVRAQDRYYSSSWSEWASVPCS
Chain of Recombinant human IL-12 (Interleukin-12) (chain): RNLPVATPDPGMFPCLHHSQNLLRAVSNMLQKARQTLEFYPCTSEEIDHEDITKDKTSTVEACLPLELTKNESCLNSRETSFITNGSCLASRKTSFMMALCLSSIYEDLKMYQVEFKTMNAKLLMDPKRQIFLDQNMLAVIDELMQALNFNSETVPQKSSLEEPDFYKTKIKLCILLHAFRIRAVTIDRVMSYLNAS

I.P. assay (cpm bound) [1] [cpm]	Kd [2] [nM]	Kd [3] [nM]	Kd [4] [nM]	Kd [5] [nM]	Kd [6] [nM]	Kd [7] [nM]	3H-TdR incorporation of PHA-activated PBMC [8] [cpm]	Kd [9] [nM]	Kd [10]	Kd [11] [nM]	Kd [12]	Kd [13]	Kd [14] [nM]	Kd [15] [nM]	Kd [16] [nM]	Kd [17] [nM]	Substance
402	–	–	–	–	–	–	–	–	–	–	–	–	–	–	–	–	Control mAb (Table 1) (antibody)
–	1.8	0.21	0.188	0.057	0.023	2.4	38800	0.018	0.05 nM and 0.2 nM	2.36	0.005 nM and 0.02 nM	2 nM and 6 nM	0.006	0.084	0.016	0.109	Recombinant human IL-12 (Interleukin-12) (from UniProt P29460) (ligand)
